Assay results published in the nanobody polyreactivity screen of Harvey et al. (2022).

Test: yeast display, Sf9 membrane polyspecificity reagent, FACS + sequencing; frameworks hold sequencing errors
Method in brief: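 Nanobodies came from a synthetic yeast display library in Saccharomyces cerevisiae BJ5465, induced with galactose for 36–48 hours and stained for 1 hour at 4 °C with 10% biotinylated, detergent-solubilized Sf9 membrane reagent. Cells were enriched on streptavidin microbeads and then FACS-sorted, with low and high (top ~1%) gates set on anti-HA fluorescence for expression and streptavidin fluorescence for reagent binding. Each polyreactivity label reflects the gate a clone came from. Genes were amplified by colony PCR, sequenced by MiSeq 2 × 250 and filtered by CDR length.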

Sequence | polyreactivity (PSR sort gate)
QVQLVESRGGLVQAGGSLRLSCPDSGYIFFTNSMGWYRQEPGKERELVAAISSAGRTKYADSVKGRFTISRDNAKNTVYLQMNSLKPEDTAVYYCNKAFYYLWGTGYDYWGQGTQVTVSS | low polyreactivity
QVQLVESRGGLVQAGGSLRLSFPDSGSTYVKNAMGWYRHAPGKERELVARISYSGGSTYADSVKGRFTISRDNAKNTVYLQMNSLKPEDSAVYYCNARTHNWWDGDGVYSQSLYDYWGQGTQVTVSS | low polyreactivity
QVQLVESRGGLVQAGGSLRLSSAASGRTFRSYVMGWYTPAPGKERQLVAAITRSGGSTYYADSVKGRFTISRDNAKNTVYLQMNSLKPEDTAVYYCATDRWYYYPDYYPYGEYDYWGQGTQVTVSS | low polyreactivity
QVQLVESRGGLVQAGGSLRLSYAASGYFFRYNSMGWYRQAPGTERELVAAMSRGGTTYYADSVTGRFTISRDNAMNTVYLQMNSLKPEDTEVYYCAAGRKVQSRRYGYWGQGTQVTVSS | high polyreactivity
QVQLVESRGGLVQAGGSLRLTCAASGSTFTHYAMGWYRQAPGKERELVAAISSGGGSTYYADSVKGRFTISRDNAKNTVYVQMNSLKPEDTAVYYCAVRSQFRAWRFYYWGQGTQVNVSS | high polyreactivity
QVQLVESRGGLVQAGGSVRLSFAASGRILKYNAMGWYRQAPGKERELVAAISYRGGSTYYADSVKGRFTISRDNAKNTVYLQMNSLKPEDTAVYYCAALTESTSYGYWGQGTQVTVSS | low polyreactivity
QVQLVESRGRLVQAVGSLRLSCAASGFTFDSYPMGWYRHAPRKEMEFVAGITDLGDYTYYADSVKGRFTISRDTAKNTVFLQMKSLKPEDTEVYYCNDTTGYKHAWRCENGYWGQGTQVTVSS | low polyreactivity
QVQLVESSGGLVQAGGSLRLSCAASGRTFSRNAMGWYRQAPGKERELVAAITYSGGTTYYADSVKGRFTISRDNAKNTVYLQMNSLKPEDTAVYYCATPSRKSGVGYPSYNYWGQGTQVTVSS | high polyreactivity
QVQLVESSGGLVQAGGSLRLSCADSGIIFQNYEMGWYRQAPGKDRELVAAITGSGGSTYYADSVKGRFTISRDNAKNTVYLQMNSLKPEDTAVDYCNADWEYYGKSDYWGQGTQVTVAS | low polyreactivity
QVQLVESSGGLVQAGGSLRLSCAHSGIIFYCYAMGCYRHSPGNLRELVAAISNNGGSTYPDSVKGRFTISRDNAKNTVYLQMNSLKPEDTAVYYGDAHPTGGVGFDAYYWGQGTQVTVSS | low polyreactivity
QVQLVESSGGLVQAGGSLSLSCADSGIIFYRYAMGWYIQAQGQERELVAAITWSGVSTSYADSVKGRFTISRDNAKNTVSIQMNSLKPEDTAVYYCNKDPGTLYGDMDSWGQGTQVTVSS | low polyreactivity
QVQLVESVGCLVQAGGSLRLSCATSGSIFRYYTMGWYRQPPGKERELVARISSSGSTNYADSVKGRFTISRDNGKNTVYLQMNSLKPEDTAVYYCAARGFSWAGYFYWGQGTQVTVSS | low polyreactivity
QVQLVESVGGIVQAGGSLRLSCAASGRTFYVYAMGWYRQARGKERELVASIRWRGSTYYADSVKGRFTISRDNAKNTVYLKMNSLKPEDTAVYYCAARYPYELGFDYWGQGTQVTVSS | low polyreactivity
QVQLVESVGGLLQAGGSLRLSCAASGSIFDVYTMGWYRQAPGKVRELFAAINTGGGSTYYADSVKGRFTISRDNAKNTVYCQMNSLKPEVTAVYYCAASVYHYGPLYYWGQGTQVTVSS | low polyreactivity
QVQLVESVGGLVLAGGSLRLSCAASGSIFIVNAMGWYRQAPGKERELVAAISGRGGNTNYADSVKGRFTISRDNAKNTVYLQMNSLKPEDTAVYYCAARHTRDYDYWGQGTQVTVSS | low polyreactivity
QVQLVESVGGLVQAGCSLRLSCAASGSTFEVYAMGWYRQAPGKESELVATITWSGGSTYYADSVKGRFTISRDNAKTTVYLQMNSLKPEDTAVYYCNAVIRYYFWGKYYLYYYWGQGTQVTVSS | high polyreactivity
